Entries after “also recorded” stand apart in the source; their conditions may differ. Where only a bound is given, the exact number is not on record here.

The subject of assay [1] is NG2+ cells in the JGA area. Nature of the assay: NG2 immunofluorescence of low salt diet+captopril-treated mouse kidneys. It counts as in vivo. The source says:
FIG. 6. NG2 (FIG. 6A, green) and renin (FIG. 6B, red) immunofluorescence of low salt diet+captopril-treated mouse kidneys. […] Nuclei were labeled blue with DAPI. n=4 each group, *: P<0.05.
(§1) The increased density of NG2+ cells was 70% inhibited by the administration of the selective COX-2 inhibitor SC58236 (FIG. 6E).

Assay [2] relates to NG2-derived progenitor cells. Nature of the assay: Kidney tissue remodeling after 10 days of loop diuretic. The format is in vivo. To be noted: 10 days of treatment in an animal model. The source says:
FIG. 22. […] Increase in renal cortical mesenchyme-derived cell density (red), remodeling of the entire length of the glomerular (G) arterioles by NG2-derived progenitor cells within 10 days in response to loop diuretics.
The Inventors' initial experimental strategy to show proof-of-principle for this macula densa mechanism was to apply gold-standard whole body approaches to activate this new mechanism (e.g. dietary salt restriction and loop diuretics), which have been known for decades to improve kidney function. One example is the use of the loop diuretic furosemide, which blocks salt-sensing by MD cells and therefore is equivalent to the effects of low dietary salt intake as shown in FIGS. 6-7, 10). […] Furosemide and other loop diuretics have been in human clinical use for decades as efficient anti-hypertensive therapies. In addition to diuretics, the Inventors will explore other small molecules that may have specific MD cell targeting characteristics, and may activate the MD kidney repair program.

The test system of assay [3] is Ki67+ proliferating cells in the JGA area. The experiment in a line: Ki67 immunofluorescence of low salt diet+captopril-treated mouse kidneys. The format is in vivo.
Excerpt: FIG. 7. Ki67 (red nuclei) immunofluorescence of control (FIG. 7A-FIG. 7B) and low salt diet+captopril-treated mouse kidneys (FIG. 7C-FIG. 7D). In contrast to control untreated (FIG. 7A) and control+7-NI (FIG. 7B), a high density of Ki67+ proliferating cells are visible around the JGA interstitium in response to low salt diet+captopril treatment (FIG. 7C). […] Nuclei were labeled blue with DAPI. n=4 each group, §: P<0.05 versus ctrl, *: P<0.05 versus untreated low salt+captopril.
as §1

The test system of another assay is MMDD1 cells. Nature of the assay: GFP transfection with MMDD1 homing peptide+GFP cDNA complex. The format is cell-based. As to conditions: overnight incubation, fluorescence microscopy. The source says: FIG. 19. Selective targeting of MD cells with the MMDD1 homing peptide. […] Note the diffuse cytosolic GFP expression in MMDD1 cells indicating successful escape of the endosomes after fusion protein internalization.
In preliminary data, the Inventors identified a MMDD1 homing peptide based on phage-display, used it as targeting domain, and fused to a histidine-rich amphipathic peptide, optimized for DNA binding properties and gene delivery through endosomal escape. The fusiogenic peptide was synthesized:
The peptide was mixed with pcDNA3.1 GFP and incubated for 1 hour at room temperature. The solution was added to cultured MMDD1 cells (MD cell line), HEK293 cells and M-1 cells (collecting duct cell line), and incubated overnight at 37° C. in a humidified atmosphere (95% air and 5% CO2). Transfection was measured by fluorescence microscopy.

A further assay relates to renin cell. The experiment in a line: Renin cell proliferation and migration. The format is cell-based. To be noted: not shown. The source says: (§2) CCN1 had no effect on renin cell proliferation and migration (not shown).
Assay [4] relates to glomerular endothelial cells. Nature of the assay: Serial MPM imaging of glomerular endothelial cells in Cdh5-Confetti mice. The format is in vivo, mouse. The method, then:
FIG. 15. Tracking the fate of the same glomerular endothelial cells over time in vivo at the single cell level. FIG. 15A-FIG. 15B: Serial MPM imaging of the same glomerulus (G) in the same Cdh5-Confetti mice was performed daily for one week. Endothelial cell distribution was registered using Z-sectioning of the glomerulus from top to bottom at each time point. Compared to baseline (FIG. 15A) when cells of all Confetti colors (membrane-bound CFP (blue), nuclear GFP (green), cytosolic YFP (yellow) and RFP (red)) were evenly distributed within the glomerulus, monochromatic glomeruli developed as early as 4 days (FIG. 15B) after endothelial injury (L-NAME treatment) indicating the presence of single precursor cell-derived colonies. Note the presence of cells in multiple colors in the afferent arteriole (AA, arrow) at baseline (FIG. 15A) including one GFP+ (green) and one RFP+ (magenta) cell at the terminal segment, and the identically colored intra-glomerular cell colonies (mostly green, some magenta) 4 days later (FIG. 15B). FIG. 15C: Schematic of the three directly adjacent JGA cell types (MD, JG renin, and AA EPCs) forming a functional syntitium via cell-to-cell crosstalk to remodel the glomerulus.

In another assay the test system is sclerotic glomeruli. Nature of the assay: ADR mouse model of GS, renal subcapsular treatment. It counts as in vivo. The source says:
FIG. 17. The effects of CCN1 and MMDD1 conditioned media treatment in the ADR mouse model of GS. FIG. 17A: illustration of study design. FIG. 17B: Effects of CCN1 and MMDD1 media on the number of Ki67+ cells (IF, red) per field. FIG. 17C: Effects of CCN1 and MMDD1 media on the number of p57+ podocytes (IF, red) per glomerulus. Green is autofluorescence for visualization of tissue anatomy.
In other preliminary experiments, mouse (ADR nephropathy resembling human-like FSGS) and rat (PAN-induced FSGS) models of CKD were established. Single renal subcapsular treatment with exogenous recombinant CCN1 was performed at a time point (two weeks after second ADR dose in mice, or after the second dose of PAN in rats) when severe and persistent glomerular pathology was confirmed (FIG. 17A), with subsequent two weeks' follow-up. Animals were placed in metabolic cages weekly for urine collection, and tissues (kidney, aorta, heart, brain, blood) harvested 4 weeks (after first ADR dose in mice), or 2 months (after first PAN dose in rats).
Since the main problem in kidney disease appears to be reduced or absent production of CCN1 by macula densa cells, the Inventors can supplement recombinant CCN1 peptide delivered specifically into the renal parenchyma. In preliminary studies illustrated in FIG. 17, the Inventors used subcapsular injections of recombinant CCN1. However, this is invasive procedure, which would have limited clinical use. A much better non-invasive approach the Inventors are currently testing is to give systemic iv injection of recombinant CCN1 targeted specifically to the kidney blood supply. This is performed by conjugating recombinant CCN1 to a glomerulus homing peptide. The promise and therapeutic benefit of this approach is shown in FIG. 17 in a pre-clinical animal model of CKD.
In order to reproduce all of these MD-specific protective factors for therapeutic use, the Inventors utilized the existing MMDD1 in vitro cell culture model of MD cells that endogenously produce these factors. […]

In assay [5] the test system is cultured GEnCs. Nature of the assay: GEnC cell proliferation and cell migration (scratch opening assay). The format is cell-based.
Assay [6] relates to cultured GEnCs. The experiment in a line: Endothelial tube formation assay (in vitro angiogenesis). The format is cell-based. To be noted: standard doses of CCN1 and VEGF. As for the experimental part: FIG. 11. Robust effect of CCN1 on GEnCs: in vitro angiogenesis. Endothelial tube formation assays were performed using cultured GEnCs and standard doses of CCN1 and VEGF. *: P<0.05. Results are shown in FIG. 11A, FIG. 11B, FIG. 11C, FIG. 11D and FIG. 11E.
as §2
In order to reproduce all of these MD-specific protective factors for therapeutic use, the Inventors utilized the existing MMDD1 in vitro cell culture model of MD cells that endogenously produce these factors. Mimicking the in vivo physiological activation of MD cells (low salt diet), the NaCl content of MD tissue culture medium was reduced by half as described earlier. […] The therapeutic strategy with this medium (illustrated in FIG. 21) is the same as above for CCN1, to inject it under the renal capsule for specific kidney targeting.

The nature of assay [7]: BalbC Adriamycin mouse model of FSGS. It counts as in vivo. The source says:
FIG. 24. The robust protective effects of treatment with recombinant CCN1 or conditioned MD cell media in the BalbC Adriamycin mouse model of FSGS in vivo. FIG. 24A: Albuminuria (albumin/creatinine ratio, ACR) in the various control and treatment groups before ADR-induced kidney injury (baseline), two weeks later before the start of treatments, and 1 and 4 weeks after treatment with saline, recombinant CCN1, control or low salt-conditioned MD cell media. FIG. 24B-FIG. 24C: Trichrome staining of kidney histological sections.
In other work The Inventors tested the effects and therapeutic potential of the aforementioned novel biologicals. The robust protective effects of treatment with recombinant CCN1 or conditioned MD cell media in the BalbC Adriamycin mouse model of human-like focal segmental glomerulosclerosis (FSGS) in vivo is shown in FIG. 24. […] The development of albuminuria, the most important and clinically relevant functional readout of the failing kidneys was measured in the various control and experimental treatment groups before ADR-induced kidney injury (baseline), two weeks later before the start of treatments, and 1 and 4 weeks after treatment with saline, recombinant CCN1, control or low salt-conditioned MD cell media.

[8] abbreviates: low salt diet+captopril treatment for one week.

As to `NS(=O)(=O)c1ccc(-n2nc(C(F)(F)F)cc2-c2ccc(Cl)cc2)cc1` [SC58236], the “inhibition of the increased density of NG2+ cells” value in [1] (setting [8]) turned out to be 70%. In addition, the “number of NG2+ cells in the JGA area” value in [1] (low salt diet+captopril-treated, n=4 each group, P<0.05) was “significantly reduced”.

In the case of `NS(=O)(=O)c1cc(C(=O)O)c(NCc2ccco2)cc1Cl` [furosemide], the “kidney tissue (vascular and glomerular) remodeling” value in assay [2] was “significant kidney tissue remodeling; also recorded: Robust vascular and glomerular remodeling”.

On to `O=[N+]([O-])c1cccc2cn[nH]c12` [7-NI], for which the “proliferation of NG2+ cells” value in assay [3] (setting [8]) was “completely abolished”. Also, in assay [3] (low salt diet+captopril-treated, n=4 each group, P<0.05 versus untreated low salt+captopril), the “number of Ki67+ cells in the JGA area” value is “significantly reduced”.

Turning to “NH2-ACFNDSDMLCGGGKKHLLAHALHLLALLALHLAHALAHLKKA-NH2 (H-ACFNDSDMLCGGGKKHLLAHALHLLALLALHLAHALAHLKKA-NH2; cysteine pairing not given here) [MMDD1 homing peptide+GFP cDNA complex]”, the “transfection with GFP” value in the assay with MMDD1 cells is recorded as “successful transfection”.

B1: CCN1: recombinant CCN family member 1, secreted matricellular protein, angiogenic inducer (protein, UniProt O00622 25-381, looked up)
CCN family member 1: TCPAACHCPLEAPKCAPGVGLVRDGCGCCKVCAKQLNEDCSKTQPCDHTKGLECNFGASSTALKGICRAQSEGRPCEYNSRIYQNGESFQPNCKHQCTCIDGAVGCIPLCPQELSLPNLGCPNPRLVKVTGQCCEEWVCDEDSIKDPMEDQDGLLGKELGFDASEVELTRNNELIAVGKGSSLKRLPVFGMEPRILYNPLQGQKCIVQTTSWSQCSKTCGTGISTRVTNDNPECRLVKETRICEVRPCGQPVYSSLKKGKKCSKTKKSPEPVRFTYAGCLSVKKYRPKYCGSCVDGRCCTPQLTRTVKMRFRCEDGETFSKNVMMIQSCKCNYNCPHANEAAFPFYRLFNDIHKFRD
On to B1, for which the “effect on renin cell proliferation and migration” value in the assay with renin cell is given as “no effect”. Further, in [4] (subcapsular treatment for one week), the “Confetti cell tracing units in glomeruli” value is on record as “high number of Confetti cells formed monochromatic tracing units”. Further, in assay [4] (within a few days), the “remodeling of the glomerular endothelial layer” value is “rapid and robust remodeling”. For the same molecule, the proteinuria entry in the assay on sclerotic glomeruli (preliminary mouse and rat studies of GS) is reported as “diminished proteinuria”. Further, the “increase in Ki67+ proliferating cells in glomeruli” value in the assay with sclerotic glomeruli (single renal subcapsular treatment, two weeks' follow-up) is more than 20 fold. For the same molecule, the “number of p57+ podocytes” value in the assay with sclerotic glomeruli (single treatment, treated versus control groups) was “significantly increased”. The “effect on cell proliferation and migration” value with cultured GEnCs [5] (added to the media of cultured GEnCs) is given as “robust dose-dependent effect”. Further, the “effects on GEnCs in presence of blocking antibodies for integrins αvβ3 and VEGF receptor blockers” value with cultured GEnCs [5] (not shown) is “almost completely abolished”. In addition, the “in vitro angiogenesis (tube formation assay) compared with VEGF” value with cultured GEnCs [6] is on record as “more effective”. In addition, the “albuminuria (albumin/creatinine ratio, ACR)” value in [7] (treatment for 5 consecutive days started two weeks after 8 mg/kg ADR iv, 1 and 4 weeks after treatment) is given as “robust decline”. Further, the “glomerulosclerosis and tissue fibrosis (trichrome kidney histology)” value in [7] (versus control saline-treated) is “improved pathology”.

Values taken from patent publication US11318209B2, “Targeting macula densa cells as a new therapeutic approach for kidney disease” (MACULA DENSA CELL LLC, priority 2016, dated 2022).
